Target: Dyn1_(387kD) (S. cerevisiae) (UniProt P36022)
Test: single-molecule GFP fluorescence intensity; GFP-tagged motors on surface-immobilised Cy5 MTs, with ATP or apyrase, 5 min; intensities of GFP spots compared with GST-Dyn1 331kD

stoichiometry N: 2
Substance: Dyn1_(387kD), P36022 732-4092

— paper PMC3762337
